Tested on: dCas9 (SpCas9 D10A/H840A) D10A,H840A (Streptococcus pyogenes)
Settings: nanochannel imaging; NEB Buffer 3, BSA, 37 C 60 min; about 16% of labels off-target; PAM not stated

“DUF1220 crRNA (with tracrRNA-ATTO647) ; linearized BAC DNA with DUF1220 repeats” was tested, and the activity (% target sites labeled) was 86.

— patent US20210230664
